Laboratory results published in the RNAGym collection of RNA variant scans (doi:10.7554/elife.80360).

B1: HDV Ribozyme (parent)
chain: GGCCGGCAUGGUCCCAGCCUCCUCGCUGGCGCCGGCUGGGCAACAUUCCGAGGGGACCGUCCCCUCGGUAAUGGCGAAUGGGACCCA

Variants of: B1
Assay: self-cleavage, relative activity (ratio to wild type); higher = more cleavage; co-transcriptional

**Q.** Which self-cleavage does the source give for C14G C21G here?
**A.** 0.0449

**Q.** For C13U G28U, which self-cleavage is on record?
**A.** 0.0615

**Q.** For C14A U46G, which self-cleavage is on record?
**A.** 0.525

**Q.** With C14A C58A as the variant, how does the self-cleavage read?
**A.** 1.17

**Q.** With C13U C30G as the variant, how does the self-cleavage read?
**A.** 0.198

**Q.** Which self-cleavage does the source give for C13U C30U here?
**A.** 0.261

**Q.** With C14A U27A as the variant, how does the self-cleavage read?
**A.** 0.739

**Q.** Which self-cleavage does the source give for C14G U60A here?
**A.** 0.831

**Q.** Which self-cleavage does the source give for C14A G73C here?
**A.** 0.104

**Q.** With C14A C24A as the variant, how does the self-cleavage read?
**A.** 0.383

**Q.** Which self-cleavage does the source give for C14A C24G here?
**A.** 0.146

**Q.** For C13U C64U, which self-cleavage is on record?
**A.** 0.554

**Q.** With C13U C33A as the variant, how does the self-cleavage read?
**A.** 0.0923

**Q.** For C14A C30U, which self-cleavage is on record?
**A.** 0.143

**Q.** With C14U A43G as the variant, how does the self-cleavage read?
**A.** 0.643

**Q.** Which self-cleavage does the source give for C14G C18U here?
**A.** 0.115

**Q.** With C14G C18A as the variant, how does the self-cleavage read?
**A.** 0.17

**Q.** For C14G C64G, which self-cleavage is on record?
**A.** 0.485

**Q.** Which self-cleavage does the source give for C14A C19A here?
**A.** 0.0639

**Q.** With C13U C21U as the variant, how does the self-cleavage read?
**A.** 0.0563

**Q.** With C14A G80C as the variant, how does the self-cleavage read?
**A.** 0.104

**Q.** Which self-cleavage does the source give for C13U G55C here?
**A.** 0.658

**Q.** For C13U G76A, which self-cleavage is on record?
**A.** 0.743

**Q.** For C13U C36A, which self-cleavage is on record?
**A.** 0.132

**Q.** For C13U C36G, which self-cleavage is on record?
**A.** 0.0723

**Q.** For C14U A45G, which self-cleavage is on record?
**A.** 0.988

**Q.** With C14G G81A as the variant, how does the self-cleavage read?
**A.** 0.957

**Q.** With C14G G81C as the variant, how does the self-cleavage read?
**A.** 0.974

**Q.** Which self-cleavage does the source give for C14A G55A here?
**A.** 0.814

**Q.** Which self-cleavage does the source give for C13U C58U here?
**A.** 0.403

**Q.** Which self-cleavage does the source give for C14U A51C here?
**A.** 1.19

**Q.** With C13U U47A as the variant, how does the self-cleavage read?
**A.** 0.646

**Q.** Which self-cleavage does the source give for C14A U65C here?
**A.** 0.864

**Q.** With C14G C24G as the variant, how does the self-cleavage read?
**A.** 0

**Q.** For C14A C36U, which self-cleavage is on record?
**A.** 0.259

**Q.** For C13U C86U, which self-cleavage is on record?
**A.** 1.1

**Q.** Which self-cleavage does the source give for C14G C58A here?
**A.** 0.639

**Q.** With C14U C18U as the variant, how does the self-cleavage read?
**A.** 0.591

**Q.** With C14G A42C as the variant, how does the self-cleavage read?
**A.** 0.0923

**Q.** For C14A U23C, which self-cleavage is on record?
**A.** 0.997

**Q.** With C13U C18G as the variant, how does the self-cleavage read?
**A.** 0.0332

**Q.** With C13U C18U as the variant, how does the self-cleavage read?
**A.** 0.295

**Q.** With C13U C84U as the variant, how does the self-cleavage read?
**A.** 0.361

**Q.** Which self-cleavage does the source give for C14G A16U here?
**A.** 0.791

**Q.** Which self-cleavage does the source give for C14G A16C here?
**A.** 0.0875

**Q.** For C14G G67A, which self-cleavage is on record?
**A.** 0.453

**Q.** Which self-cleavage does the source give for C14A A45G here?
**A.** 0.703

**Q.** For C13U U20A, which self-cleavage is on record?
**A.** 0.0831

**Q.** Which self-cleavage does the source give for C14G G17U here?
**A.** 0.323

**Q.** For C14A U60C, which self-cleavage is on record?
**A.** 0.485

**Q.** Which self-cleavage does the source give for C14A U60G here?
**A.** 0.684

**Q.** With C14A A70C as the variant, how does the self-cleavage read?
**A.** 0.467

**Q.** With C14G U37C as the variant, how does the self-cleavage read?
**A.** 0.646

**Q.** With C14G U37A as the variant, how does the self-cleavage read?
**A.** 0.0489

**Q.** For C14A G40C, which self-cleavage is on record?
**A.** 0.185

**Q.** With C14A G40U as the variant, how does the self-cleavage read?
**A.** 0.261

**Q.** For C14G U20G, which self-cleavage is on record?
**A.** 0.151

**Q.** For C14U C19A, which self-cleavage is on record?
**A.** 0.0545

**Q.** For C13U G25A, which self-cleavage is on record?
**A.** 0.122

**Q.** Which self-cleavage does the source give for C14G G38A here?
**A.** 0.0831

**Q.** Which self-cleavage does the source give for C14G C30G here?
**A.** 0.0692

**Q.** Which self-cleavage does the source give for C14G A83U here?
**A.** 0.289

**Q.** For C13U C24U, which self-cleavage is on record?
**A.** 0.262

**Q.** For C14G C36U, which self-cleavage is on record?
**A.** 0.375

**Q.** For C14G C66G, which self-cleavage is on record?
**A.** 0.391

**Q.** Which self-cleavage does the source give for C14A A87C here?
**A.** 0.643

**Q.** For C13U C32G, which self-cleavage is on record?
**A.** 0.101

**Q.** For C13U C32U, which self-cleavage is on record?
**A.** 0.584

**Q.** For C14G C32G, which self-cleavage is on record?
**A.** 0

**Q.** For C14G C32A, which self-cleavage is on record?
**A.** 0.0554

**Q.** With C13U G68C as the variant, how does the self-cleavage read?
**A.** 0.511

**Q.** Which self-cleavage does the source give for C13U G68U here?
**A.** 0.614

**Q.** Which self-cleavage does the source give for C14G C22A here?
**A.** 0

**Q.** For C14G C22G, which self-cleavage is on record?
**A.** 0

**Q.** Which self-cleavage does the source give for C14G U69G here?
**A.** 0.604

**Q.** Which self-cleavage does the source give for C14A A16U here?
**A.** 0.923

**Q.** For C14G G73A, which self-cleavage is on record?
**A.** 0.222

**Q.** Which self-cleavage does the source give for C14G G73C here?
**A.** 0.0504

**Q.** With C13U U46G as the variant, how does the self-cleavage read?
**A.** 0.356

**Q.** With C14A G53C as the variant, how does the self-cleavage read?
**A.** 0.665

**Q.** Which self-cleavage does the source give for C13U C48U here?
**A.** 0.642

**Q.** With C14G G25A as the variant, how does the self-cleavage read?
**A.** 0.0437

**Q.** Which self-cleavage does the source give for C14U A16G here?
**A.** 1.21

**Q.** Which self-cleavage does the source give for C14A C26U here?
**A.** 1.07
